Laboratory results: the nanobody polyreactivity screen of Harvey et al. (2022)

experiment: yeast display, Sf9 membrane polyspecificity reagent, FACS + sequencing; frameworks hold sequencing errors
In short: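 Synthetic nanobody libraries on Saccharomyces cerevisiae BJ5465 were galactose-induced for 36–48 hours, stained 1 hour at 4 °C with 10% biotinylated, detergent-solubilized Sf9 membrane reagent and enriched on streptavidin microbeads. FACS then separated cells into low and high (top ~1%) gates by anti-HA (expression) and streptavidin (reagent binding) fluorescence. Genes were colony-PCR amplified, MiSeq 2 × 250 sequenced and CDR-length filtered. A clone's polyreactivity label is that of its gate of origin.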

Sequence | polyreactivity (PSR sort gate)
QVQLVESGGGLVQAGGSLRLSCAASGSTYYNAMGWYRQAPGKERELVAAIRFRYGSTYYADSVKGRFTISRDNAKNSVYLQMNSLKPEDTAVYYCADDNKRSWRYAYNYWGHGTQVTVSS | high polyreactivity
QVQLVESGGGLVQAGGSLRLSCAASGSTYYTYAMGWYRQAPGKERELVAAIRGRGGRTYYADSVKGRFTISRDNAKNTVYLQMNSLKPEDTAVYYCNADGYAYYRATTRFDYWGQGTQVTVSS | high polyreactivity
QVQLVESGGGLVQAGGSLRLSCAASGSYLRYYAMGWYRPARGKERELVAAISRSGTNTYYAHSVKGRFTISRDNAKNTVYLQMNSLKPEDTAVYYCAARGYYRDYDSWGQGTQVTVSS | high polyreactivity
QVQLVESGGGLVQAGGSLRLSCAASGTFFIYAMGWYRPAPGKERELVDTISTGGSTNYADSVKGRFTISRDNAKNTVYLQMNSLKPEDTAVYSCAAEWLYPHDGGYPRPMDYWGQGTQVTVSS | low polyreactivity
QVQLVESGGGLVQAGGSLRLSCAASGTFKWYAMGWYSQAPGKERELDAVISSSGGTTYYADSVKGRFTISRDNAKNTVYLQMNSLKPEDTAVYYCNKRFRSWTTGSPYDYWGQGTQVTVSS | high polyreactivity
QVQLVESGGGLVQAGGSLRLSCAASGTFQSYAMGWNRQAPGKERELVAAISRSGASTYYADSVKGRFTISRDNAKNTVYLQMISLKPEDTAVYYFAARKTSKYYYWGQGTQVTVSS | high polyreactivity
QVQLVESGGGLVQAGGSLRLSCAASGTFWLYTMGWYRQAPGKERELVAAISLTAGNTYYADSVKGRFTISRDNAKYTVYLQMNSLKPEDTAVYYCAADHYYYTRYEYWGQGTQVTVSS | low polyreactivity
QVQLVESGGGLVQAGGSLRLSCAASGTFYGNTMGWYRQAPGKERELVAVISIDVSTNYADSVKGRFTISRDNAKNTVYLQMNSLKPEDTAVYYCAADYLRQFRDYDYWGQGTQVTVSS | low polyreactivity
QVQLVESGGGLVQAGGSLRLSCAASGTFYYAMGWYRQAPGKEREFVAAISWRGGTTYYADSVKGRFTMSRDNAKNTVYLQMNSLKPEDTAVYYCATAPYVTSRRYGPYEYWGQGTQVTVSS | low polyreactivity
QVQLVESGGGLVQAGGSLRLSCAASGTIFGPNAMGWYRKAPGTERELVAAITLSGGSTYYSDSVKGRFTISRDNAKNTVYLPMNSLKPEDTAVYYCAAGPDYGWRRYDYWGQGTQVTVSW | low polyreactivity
QVQLVESGGGLVQAGGSLRLSCAASGTIFLWYAMGWYIQAPGKERELVASITRGGNTYYADSVKGRFTISRDNAKNTVYLQMISLKPEDTAVYYCAAVSRFWRVPYTYDYWGQGTHVTVSS | low polyreactivity
QVQLVESGGGLVQAGGSLRLSCAASGTIFTVYALGWYRQPPGKERELVAGISSGAGTTYADSVKGRFTISRDNAKNTVYLQMNSMKPEDTAVYYCAAYTWDTDHYWYGYVPYDYWGQGTQVTVSS | low polyreactivity
QVQLVESGGGLVQAGGSLRLSCAASGTIFWIYAMGWYRQAPGKERELVATITRRGGSTYYADSVKGRFTISRDNATNTVYLQMNSLKPEDTAVYFCATEPGYTYLTSYKYDYWGQGTQVTVSS | low polyreactivity
QVQLVESGGGLVQAGGSLRLSCAASGTIFYGNAMGWYRQAPGKEREYVAAITYSGGSTYYADSVKGRFSISRDNAKNTVYLQMNSLKPEDTAVYYCAKAYYPKGRYGFDYWGQGTQVTVSS | high polyreactivity
QVQLVESGGGLVQAGGSLRLSCAASGTITSYAMGWYRQAPGKERELVASIRYRGGSTYYADSVKGRFTISRDNAKNTVYLQMNSLKPEDTAVYYCAADNFAPEFYYWGQGTQVTVSS | low polyreactivity
QVQLVESGGGLVQAGGSLRLSCAASGTLATYAMGWYRQAPGKERELVAAIRYSDGRTYYADSVKGRFTISRDNAKNTFYLQMNSLKPEDTAVYYCAASFRGRGKKLDYWGQGTQVTVSS | low polyreactivity
QVQLVESGGGLVQAGGSLRLSCAASGTNQGVNAMGWYRQAPGKEREFDAAITGRGGNTYYADSVKGRYTISRDNAKNTVYLQLNSLKPDDTAVYYCAARVKDTRYQSMLDYFYWGQGTEVTVSS | high polyreactivity
QVQLVESGGGLVQAGGSLRLSCAASGTNVMGWYRQAPGKERELVAAISGSGGSTYYADSVKGRFTISRDNAKNSVYFQMNSLKPEDSAVYYCAADSIQYTARPYDYWGQGTQVTVSS | low polyreactivity
QVQLVESGGGLVQAGGSLRLSCAASGTTFDSNGRGWYREAPGKERELVAAIRSGDSTYYADSVKGRCTISRDNAKNTVYLQMISLKPEDTAVYYCNKDEATFLSKDDYWGQGTQVTVSS | low polyreactivity
QVQLVESGGGLVQAGGSLRLSCAASGTTFDYYAMGWYRQAPGKERELVAVISSSGGSTYYADSVKGRFTISRDNAKNTVYLQMNSLKPEDTAVYYCAALYRNYGSSYAYYYWGQGTQVTVSS | low polyreactivity
QVQLVESGGGLVQAGGSLRLSCAASGTTFSRYAMGWYRQAPGKEREFVAAISRRAGGTYYADSVKGRFTISRDNAKNTVYLQMNSLKPEDTAVYYCAKVLPRDYIGRATYDYWGQGTQVTVSS | high polyreactivity

Sequence | polyreactivity (PSR sort gate)
QVQLVESGGGLVQAGGSLRLSCAASGTTFSVNAMGWYRQAPGKERELVAAIDYSGGSTYYADSVKGRFTISRDNAKNTVYLQMNSLKPEDTAVYYCNADAYGTPEFTSYAVRYDYWGQGTQVTVSS | low polyreactivity
QVQLVESGGGLVQAGGSLRLSCAASGTTFSYNAIVWYRQAPGKERELVAAISGSGGTTYYADSVKGRFTISRDNAKNTVYLEMNSLKPEDTAVYYCDARPFRSWRYDYWGQGTQVTVSS | low polyreactivity
QVQLVESGGGLVQAGGSLRLSCAASGTTFTFNAMGWSRQAPGKERELVAAMSRSGGRTYYADSVKGRFTISRDNAKNTVYLQMNSLNPEDTAVYYCANDFVEQGRYNVGYWGQGTQVTGSS | high polyreactivity
QVQLVESGGGLVQAGGSLRLSCAASGTTFVHYAMGWYRQAPGKERELVAAISSSGDSTYYADSVKGRFTISRDKAKNTVYLQMNSLKPEDTAVYYCAVRSRTPRAYYYWGQGTQVTVSS | low polyreactivity
QVQLVESGGGLVQAGGSLRLSCAASGTTFVWYAMGWYRQAPGKERELVAAISLSGGSTYYADSVKGRFTISRDNAKKTVYLQMNSLKPEDTAVYYCAAETYAYLFHTYDYWGQGSQVTVSS | low polyreactivity
QVQLVESGGGLVQAGGSLRLSCAASGTTFYNYAMGWYRQAPGKERELVAAITSSGGSTYYADSVKGRFTISRDNAKNTVYLQMNSLKPEDTAVYYCNAVDGYGLVHSISTYEMDYWGQGTQVTVSS | low polyreactivity
QVQLVESGGGLVQAGGSLRLSCAASGTTYSINAMGWYRQATGKERELVAAISSGGSTYYADSVKGRFTISRDNAKYTVYLQMNSLIPEDTAVYYCAVDPSWTYWSTYRYDYWGQGTQVTVSS | low polyreactivity
QVQLVESGGGLVQAGGSLRLSCAASGVIFYVYAMGWYRQAPGKERELVAAISADGGITYYADSVKGRFTISRDNAKNTVYLQMNSLKPEDTAVYYCAADYYGSVQGGIQYGYYYWGQGTQVTVSS | low polyreactivity
QVQLVESGGGLVQAGGSLRLSCAASGVYAMGWYRQAPGKERELVAAISRRGGSTYYADSVKGRFTISRDNAKNTVYLQMNSLKPEDTAVYYCAAKRAGAEYDYWGQGTQVTVSS | high polyreactivity
QVQLVESGGGLVQAGGSLRLSCAASGYIFAGNAMGWYRQAPGKERELVAVITRGGRTYYADSVKGRFTISRDNAKNTVYLQMNSLKPEDTAVYYCAKLVSLAGRIYGYWGQGTQVTVSS | high polyreactivity
QVQLVESGGGLVQAGGSLRLSCAASGYIFAVYAMGWYIQAPGKEREFVAVITWRGGSTYYADSVKGRFTISRDNAKNTVYLQMNSLKPEDTAVYYCADDVYAQYDYWGQGTQVTVSS | high polyreactivity
QVQLVESGGGLVQAGGSLRLSCAASGYIFAWNAMGWYRQAPGKERQLVAAIRSSSGRTYYADSVKGRFTISRDNAKNTVYLLMNSLKPEDTAVYYCAASYAGGAVYYKYYSWGQGTQVTVSS | high polyreactivity
QVQLVESGGGLVQAGGSLRLSCAASGYIFDGNAMGWYRQAPGKERELVASISSGTSTYYADSVKGRFTISRDNAKNTVYLQMNSLKPEDTAVYYCAGDYKWSGFGYWGQGTQVTVSS | low polyreactivity
QVQLVESGGGLVQAGGSLRLSCAASGYIFDRYAMGWYRQAPGKERELVAAISGRGGSTYYADSVKGRFTISRDNAKNTVYLQKNSLKPEDTAFYYCARDVYVRNGQRARYDSWGQGTQVTVSS | high polyreactivity
QVQLVESGGGLVQAGGSLRLSCAASGYIFDVYAMGWYRQAPGKERELVAAISSSGGRTYYADSVKGRFTISRDTAKNTVYLQMNSLKPEDTAVYYCAAKTHSRTKVYTADYWGQGTQVTVSS | high polyreactivity
QVQLVESGGGLVQAGGSLRLSCAASGYIFERTAMGWYRQAHGKERELVAAITDDGDDTYYADSVKGRFTISRDNAKNTVYLQMNSLKPEDTAVFYCAKDLYYGDYYYWGQGTQVTVSS | low polyreactivity
QVQLVESGGGLVQAGGSLRLSCAASGYIFFGNAMGWYRQAPGKERDLVAAIRWRGTSTYYADSVKGRFTISRDNAKNTVTFLMNSLKPEDSAVYYCAADVVRSNFYGTFLYDYEYWGKGTQVTVSS | low polyreactivity
QVQLVESGGGLVQAGGSLRLSCAASGYIFGHYAMGWSRQAPGKERELVAGITWRGGSTYYADSVKGRFTISRDNAKNTVYLQLNSLKPEDTAVYYCNAQYTQRWPYGLYYEMDYWGQGTQVSVSS | low polyreactivity
QVQLVESGGGLVQAGGSLRLSCAASGYIFGHYTMGWYRPAPRKERELVAGITSGTRTYYADSVKGRFTISRDNAKNTVYLQMNSRKPDDTAVYYCAKRGPVRTQYTYYYWGQGTQVTVSS | high polyreactivity
QVQLVESGGGLVQAGGSLRLSCAASGYIFGIYAMGWYRQAPGKERELVAAISTSGGSKYYADSVKGRFTISRDTAKNTVYLQMNSLKPEDTAVYYCAASRPSPRPRYGYWGQGTQVTVSS | high polyreactivity
